Assays:
[1] = target: TDP-43 1-414 (UniProt Q13148); experiment: sedimentation assay, supernatant by SDS-PAGE; conditions: reference: unmodified TDP1-414; sites S48
[2] = target: TDP-43 NTD, 1-80 (UniProt Q13148); experiment: BS3 crosslinking, SDS-PAGE; conditions: reference: unmodified TDP1-80; sites S48
[3] = target: TDP-43 NTD, 1-80 (UniProt Q13148); experiment: size exclusion chromatography; conditions: reference: unmodified TDP1-80; sites S48

binding against the reference [1] | binding against the reference [2] | binding against the reference [3] | Substance
weaker | – | – | TDP-43 1-414 (from UniProt Q13148) TDP1-414(pS48)
– | weaker | weaker | TDP-43 NTD, 1-80 (from UniProt Q13148) TDP1-80(pS48)
